B1: anti-CD3 knob/anti-PSMA hole BsAb (bispecific antibody)
light 1: not shown
heavy 1: not shown
light 2: RIVMTQSPSSLSASVGDRVTITCKASQDVGTAVDWYQDKPGKAPKLLIYWASTRHTGVPDRFTGSGSGTDFTLTISSLQPEDFADYFCQQYNSYPLTFGGGTKLEIKRTVAAPSVFIFPPSDEQLKSGTASVVCYLNNFYPREAKVQWKVDNALQSGNSQESVTEQDSKDSTYSLWSTLTLSKADYEKHKLYACEVTHQGLSSPVTKSFNRGECGGGSYPYDVPDYA
heavy 2: not shown
B2: anti-PSMA Fab/anti-CD3 scFv BsAb (bispecific antibody, not shown: small tags and cut ends)
light: DIVMTQSPSSLSASVGDRVTITCKASQDVGTAVDWYQQKPGKAPKLLIYWASTRHTGVPDRFTGSGSGTDFTLTISSLQPEDFADYFCQQYNSYPLTFGGGTKLEIKRTVAAPSVFIFPPSDEQLKSGTASVVCLLNNFYPREAKVQWKVDNALQSGNSQESVTEQDSKDSTYSLSSTLTLSKADYEKHKLYACEVTHQGLSSPVTKSFNRGEC
heavy (part 1 of 2): EVQLVQSGAEVKKPGASVKISCKTSGYTFTEYTIHWVKQASGKGLEWIGNINPNNGGTTYNQKFEDRATLTVDKSTSTAYMELSSLRSEDTAVYYCAAGWNFDYWGQGTTVTVSSASTKGPSVFPLAPSSKSTSGGTAALGCLVKDYFPEPVTVSWNSGALTSGVHTFPAVLQSSGLYSLSSVVTVPSSSLGTQTYICNVNHKPSNTKVDKRVEPKSCDK
heavy (part 2 of 2): not shown
B3: anti-CD3 Fab/anti-PSMA scFv BsAb (bispecific antibody, not shown: small tags and cut ends)
light: not shown
heavy (part 1 of 2): not shown
heavy (part 2 of 2): GGGSGGGEVQLVQSGAEVKKPGASVKISCKTSGYTFTEYTIHWVKQASGKGLEWIGNINPNNGGTTYNQKFEDRATLTVDKSTSTAYMELSSLRSEDTAVYYCAAGWNFDYWGQGTTVTVSSAGGGGSGGGGSGGGGSDIVMTQSPSSLSASVGDRVTITCKASQDVGTAVDWYQQKPGKAPKLLIYWASTRHTGVPDRFTGSGSGTDFTLTISSLQPEDFADYFCQQYNSYPLTFGGGTKLEIKRHHHHHH
B4: anti-PSMA scFv/anti-CD3 scFv BsAb (bispecific antibody, not shown: small tags and cut ends)
chain (part 1 of 2): DIVMTQSPSSLSASVGDRVTITCKASQDVGTAVDWYQQKPGKAPKLLIYWASTRHTGVPDRFTGSGSGTDFTLTISSLQPEDFADYFCQQYNSYPLTFGGGTKLEIKRGGGGSGGGGSGGGGSEVQLVQSGAEVKKPGASVKISCKTSGYTFTEYTIHWVKQASGKGLEWIGNINPNNGGTTYNQKFEDRATLTVDKSTSTAYMELSSLRSEDTAVYYCAAGWNFDYWGQGTTVTVSSA
chain (part 2 of 2): not shown

Tests used:
[1] = target: T1, prostate specific membrane antigen (PSMA) on LNCaP cells (human, UniProt Q04609 1-750); experiment: cell-based or functional assay
[2] = target: T1, prostate specific membrane antigen …; experiment: cell-based or functional assay; remark: listed apart in the source

| Binder | Cell killing of LNCaP cells by T cells of Example 2 further modified with BsAb, E/T ratio 10:1 [1] | Cytotoxic effect of BsAb T cells on LNCaP cells, Effect cell/Target cell 3:1 [2] | Cytotoxic effect of BsAb T cells on LNCaP cells, Effect cell/Target cell 5:1 [2] | Cytotoxic effect of BsAb T cells on LNCaP cells, Effect cell/Target cell 10:1 [2] | Cell killing of LNCaP cells by murine OKT3 T cells modified with BsAb, E/T ratio 10:1 [1] | Cytotoxicity on LNCaP cells of T cells differentiated by BsAb, E/T ratio 5:1 [1] | Cytotoxicity on LNCaP cells of T cells differentiated by BsAb, E/T ratio 10:1 [1] | Cytotoxicity on LNCaP cells of T cells differentiated by and further modified with BsAb, E/T ratio 5:1 [1] | Cytotoxicity on LNCaP cells of T cells differentiated by and further modified with BsAb, E/T ratio 10:1 [1] |
| --- | --- | --- | --- | --- | --- | --- | --- | --- | --- |
| B1 | > 90% | 43.1% | 58.6% | 70.4% |  |  |  |  |  |
| B2 | > 90% | 64.8% | 87% | 97.3% | ~100% |  |  |  |  |
| B3 | > 90% | 30.3% | 62.6% | 82.2% |  | ~51.3% | ~61% | ~78.2% | ~81.8% |
| B4 | > 90% | 53.8% | 83.4% | 97.6% |  |  |  |  |  |
